According to article PMC4248295:

Target: T1, MSL2 CXC domain (Drosophila melanogaster, UniProt P50534 520-570, C560G)
T1 sequence: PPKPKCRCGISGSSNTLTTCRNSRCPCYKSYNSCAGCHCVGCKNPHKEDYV
Assay: crystal structure

B1: (GC)6 (12 bp) (dsDNA)
DNA 1: GCGCGCGCGCGC
DNA 2: GCGCGCGCGCGC
B1: binds.
